Consider three molecules from article PMC3471927, “The PduQ Enzyme Is an Alcohol Dehydrogenase Used to Recycle NAD^+ Internally within the Pdu Microcompartment of Salmonella enterica” (PLoS ONE, 2012).

One series has as its target T1, PduP (Salmonella enterica, UniProt Q9XDN1).
T1 construct: native PduP within anaerobically purified Pdu microcompartments (wild-type and pduQ deletion strain BE903)
In words: thioester formation at […] nm in purified Pdu MCPs. Particulars: 10 mM propionaldehyde, 200 mM 1,2-propanediol, 40 µM NAD+, 100 µM HS-CoA, 100 mM sodium phosphate pH 7.0. Format: biochemical.

Substrate in series [1]: NC(=O)C1=CN([C@@H]2O[C@H](COP(=O)(O)OP(=O)(O)OC[C@H]3O[C@@H](n4cnc5c(N)ncnc54)[C@H](O)[C@@H]3O)[C@@H](O)[C@H]2O)C=CC1
In words: purified protein. The note with it: 150 mM propionaldehyde, 100 mM sodium phosphate pH 7.0, anaerobic; pH 7.0. Format: biochemical, Salmonella enterica.

Substrate in series [2]: CCC=O
As to the kind of experiment: purified protein. Format: biochemical, Salmonella enterica. Particulars: 0.4 mM NADH, 100 mM sodium phosphate pH 7.0, anaerobic; pH 7.0.

Substrate in series [3]: NC(=O)c1ccc[n+]([C@@H]2O[C@H](COP(=O)(O)OP(=O)(O)OC[C@H]3O[C@@H](n4cnc5c(N)ncnc54)[C@H](O)[C@@H]3O)[C@@H](O)[C@H]2O)c1
As to the kind of experiment: purified protein. Format: biochemical, Salmonella enterica. The note with it: 800 mM 1-propanol, 100 mM Tris-HCl pH 9.0, anaerobic; pH 9.0.

Substrate in series [4]: CCCO
In words: purified protein. The note with it: 2 mM NAD+, 100 mM Tris-HCl pH 9.0, anaerobic; pH 9.0. It counts as biochemical, Salmonella enterica.

As a reminder, the Km is the concentration of substrate that gives half-maximal velocity. Broadly, the Vmax is the top rate of the reaction or transport when substrate is in excess. The term kcat denotes the maximal rate divided by the concentration of active sites. As usually defined, the kcat/Km is the turnover number divided by the Michaelis constant.

T1 sequence (Q9XDN1 whole entry): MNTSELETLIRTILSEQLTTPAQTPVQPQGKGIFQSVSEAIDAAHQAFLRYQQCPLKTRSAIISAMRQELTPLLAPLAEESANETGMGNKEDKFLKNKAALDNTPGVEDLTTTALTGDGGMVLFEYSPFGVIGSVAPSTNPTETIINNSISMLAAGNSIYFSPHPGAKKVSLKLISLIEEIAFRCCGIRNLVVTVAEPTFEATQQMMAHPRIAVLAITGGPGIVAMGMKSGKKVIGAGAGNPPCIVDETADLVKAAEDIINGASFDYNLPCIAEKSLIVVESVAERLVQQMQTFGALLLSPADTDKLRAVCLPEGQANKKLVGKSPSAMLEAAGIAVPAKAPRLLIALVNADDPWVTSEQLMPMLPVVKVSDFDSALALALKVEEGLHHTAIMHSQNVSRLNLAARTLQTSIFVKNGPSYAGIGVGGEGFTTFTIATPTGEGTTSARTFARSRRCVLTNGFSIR

With `CCC=O` [propionaldehyde], the “thioester formation at 232 nm in purified Pdu MCPs” value at PduP is reported as “no measureable PduP activity without added HS-CoA, NAD^+ or propionaldehyde”.
The same measure, in the same setting: the result for `NC(=O)c1ccc[n+]([C@@H]2O[C@H](COP(=O)(O)OP(=O)(O)OC[C@H]3O[C@@H](n4cnc5c(N)ncnc54)[C@H](O)[C@@H]3O)[C@@H](O)[C@H]2O)c1` [NAD^+] reads “no measureable PduP activity without added HS-CoA, NAD^+ or propionaldehyde”.

B1: PduQ-His6 (Salmonella enterica subsp. enterica serovar Typhimurium str. LT2) (protein)
chain: MNTFSLQTRLYSGQGSLAVLKRFTNKHIWIICDGFLAHSPLLDTLRNALPADNRISVFSEITPDPTIHTVVQGIAQMQALQPQVVIGFGGGSAMDAAKAIVWFSQQSGINIETCVAIPTTSGTGSEVTSACVISDPDKGIKYPLFNNALYPDMAILDPELVVSVPPQITANTGMDVLTHALEAWVSPRASDFTDALAEKAAKLVFQYLPTAVEKGDCVATRGKMHNASTLAGMAFSQAGLGLNHAIAHQLGGQFHLPHGLANALLLTTVIRFNAGVPRAAKRYARLAKACGFCPAEANDIAAINALIQQIELLKQRCVLPSLAVALKEGRSDFSARIPAMVQAALADVTLRTNPRPANAEAIRELLEELL
notes: full length, C-terminal His6 kept, pET-41a in E. coli BL21(DE3) RIL, anaerobic Ni-NTA
In the case of B1, the Km was 45.3 ± 5.3 µM in “purified protein [1]”, “(16.0±2.0)×10^3 µM” in the series “purified protein [2]”, 267.5 ± 22.3 µM in “purified protein [3]” and “(95.8±9.2)×10^3 µM” in the series “purified protein [4]”. Besides, the maximum rate (Vmax) in “purified protein [1]” worked out at 77.7 µmol/min/mg; in the series “purified protein [2]”, 81.3 µmol/min/mg; in “purified protein [3]”, 9.2 µmol/min/mg; in “purified protein [4]”, 8.4 µmol/min/mg. For the same molecule, the kcat in “purified protein [1]” turned out to be 52.2 s⁻¹; in the series “purified protein [2]”, 54.6 s⁻¹; in “purified protein [3]”, 6.18 s⁻¹; in “purified protein [4]”, 5.64 s⁻¹. Besides, the kcat/Km stood at 1.15e+06 M⁻¹ s⁻¹ in the series “purified protein [1]”, 3410 M⁻¹ s⁻¹ in the series “purified protein [2]”, 23100 M⁻¹ s⁻¹ in “purified protein [3]” and 58.9 M⁻¹ s⁻¹ in the series “purified protein [4]”.
